Laboratory results published in article PMC7572726 (Nature, 2020).

Target: the molecule itself
Experiment: crystal structure

B1: Flavobacteriaceae sp. STING (ΔTM) (domain or fragment)
chain: EAEYSPAFALAVGYFKNFIFPAITQIKENGEVNPKICIYKPKHFDELTSTNIDMIKAELTNKKYNLSEINLSLKGARARDILTLNKKSKIHSYFDFPNTLLSLYSYVDFKIASSNNNSSELKKKKFVELLIEQFYLKLNELIQENNLTNNITFCDKNLQGL
**Q.** For B1, which “stoichiometry N” value is on record?
**A.** 2
